Experimental data reported in patent US20220002389A1.

Legend:
[1] = target: HIV-1 BaL strain envelope protein (gp120) on BaL-infected CEM.NKR-CCR5 (NKR24) cells (HIV-1 BaL strain); assay: flow cytometry on BaL-infected NKR24 cells; antibody at 0.16 µg/mL
[2] = target: HIV-1 BaL strain envelope protein (gp120) on BaL-infected CEM.NKR-CCR5 (NKR24) cells (HIV-1 BaL strain); assay: flow cytometry on BaL-infected NKR24 cells; antibody at 20 µg/mL
[3] = target: HIV-1 BaL strain envelope protein (gp120) on BaL-infected CEM.NKR-CCR5 (NKR24) cells (HIV-1 BaL strain); assay: flow cytometry on BaL-infected NKR24 cells; antibody at 0.8 µg/mL
[4] = target: HIV-1 BaL strain envelope protein (gp120) on BaL-infected CEM.NKR-CCR5 (NKR24) cells (HIV-1 BaL strain); assay: flow cytometry on BaL-infected NKR24 cells; antibody at 4 µg/mL
[5] = target: HIV-1 BaL strain envelope protein (gp120) on BaL-infected CEM.NKR-CCR5 (NKR24) cells (HIV-1 BaL strain); assay: flow cytometry on BaL-infected NKR24 cells; antibody at 0.032 µg/mL
[6] = target: HIV-1 BaL strain envelope protein (gp120) on BaL-infected CEM.NKR-CCR5 (NKR24) cells (HIV-1 BaL strain); assay: cell-based or functional assay
[7] = target: HIV-1 BaL strain envelope protein (gp120) on BaL-infected CEM.NKR-CCR5 (NKR24) cells (HIV-1 BaL strain); assay: flow cytometry on BaL-infected NKR24 cells; antibody at 100 µg/mL

Row | Binder | MFI [1] [MFI] | MFI [2] [MFI] | MFI [3] [MFI] | MFI [4] [MFI] | MFI [5] [MFI] | IC50 (50% inhibitory concentration) of infection of TZM-bl cells by BaL virus, luciferase RLU; 'Dose at Y = 50' [6] [µg/mL] | MFI [7] [MFI]
1 | SW-1C10 (1C10 antibody produced in the cocoons of transgenic silkworms) (antibody, human IgG1, kappa, V domains shown, N-glycans without core fucose (silkworm-produced)) VH: EVQLVESGGGVVQPGRSLRVSCVASGFMFSNYAMHWVRQTAGKGLEWVAIISNDGSDKYYADSVQGRFTVSRDNSQNTLFLQMSGLRPEDSGLYYCARDLDQTIPDLTAPAFEVWGQGTMVTVSS VL: DIVMTQSPLSLAVTPGEPASISCRSSQSLLHSDGNNYLDWYLQKPGQSPQLLIYLTSNRASGVPDRFSGSGSGTDFTLKISRVEAEDVGVYFCMQSLQTWTFGQGTKVEIKR | 1080 | 1640 | 1260 | 1440 | 779 | 0.108 | 1900
2 | 293A-1C10 (1C10 antibody of 293A origin) (antibody, human IgG1, kappa, V domains shown) VH: EVQLVESGGGVVQPGRSLRVSCVASGFMFSNYAMHWVRQTAGKGLEWVAIISNDGSDKYYADSVQGRFTVSRDNSQNTLFLQMSGLRPEDSGLYYCARDLDQTIPDLTAPAFEVWGQGTMVTVSS VL: DIVMTQSPLSLAVTPGEPASISCRSSQSLLHSDGNNYLDWYLQKPGQSPQLLIYLTSNRASGVPDRFSGSGSGTDFTLKISRVEAEDVGVYFCMQSLQTWTFGQGTKVEIKR | 1210 | 1780 | 1290 | 1530 | 983 | 0.133 | 1780
